Assay results published in patent publication US6479055.

Target: viral gp41 (HIV-1 transmembrane protein) of HIV-1IIIB (HIV-1IIIB) (UniProt P03377)
Assay: cell-based or functional assay

Row | Substance | Cell fusion (IC90) [nM] | HIV infectivity (IC90) [nM]
1 | DP107 (SEQ ID NO:25), synthetic peptide of residues 558 to 595 of HIV-1LAI gp41 | 1000 | 1000
2 | DP178 (SEQ ID NO:1), synthetic peptide of amino acids 638 to 673 of HIV-1LAI gp41 | 1 | 80
3 | M41 (maltose binding protein fused to the extracellular domain of HIV-1 gp41, residues 540-686) (from UniProt P0AEX9 27-392; P03377 540-686) | > 50000 | > 16000
4 | M41-P (M41 with an Ile to Pro mutation at position 578) (from UniProt P0AEX9 27-392; P03377 540-686) | 83 | 66
5 | M41-PΔ178 (M41-P from which the DP-178 region has been deleted; gp41 amino acids 540-642 with Ile578Pro) (from UniProt P03377 540-642) | > 50000 | > 8000
